Results on 2 molecules are retold here after patent US20240327530A1 (ICHNOS SCIENCES, published 2024).

The target in experiment [1] is T1, Recombinant cynomolgus monkey IL-1RAP-ECD(S21-E359)-avi-his protein (cynomolgus monkey, UniProt P59822 21-359 (rhesus entry)).
T1 construct: also called cyno IL-1RAP-ECD-Avi-His; recombinant cynomolgus monkey IL-1RAP-avi-his protein
T1 sequence: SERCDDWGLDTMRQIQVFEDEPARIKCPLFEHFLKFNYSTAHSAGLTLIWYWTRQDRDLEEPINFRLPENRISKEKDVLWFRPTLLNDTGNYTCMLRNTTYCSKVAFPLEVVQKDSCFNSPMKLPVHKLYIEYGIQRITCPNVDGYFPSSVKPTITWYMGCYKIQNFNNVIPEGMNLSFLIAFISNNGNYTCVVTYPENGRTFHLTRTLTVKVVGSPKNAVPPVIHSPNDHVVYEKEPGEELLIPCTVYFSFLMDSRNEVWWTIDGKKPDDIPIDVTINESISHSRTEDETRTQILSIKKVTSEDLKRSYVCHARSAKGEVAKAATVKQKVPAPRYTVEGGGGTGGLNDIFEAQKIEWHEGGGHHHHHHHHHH
Put plainly: SPR. (Surface plasmon resonance follows binding to a sensor surface in real time, without labels.)

For experiment [2], the target named is T2, Mouse IL-1RAP, membrane-bound on NIH-3T3 cells (mouse, UniProt Q61730 21-570).
T2 construct: Endogenous protein on cells
T2 sequence (looked up): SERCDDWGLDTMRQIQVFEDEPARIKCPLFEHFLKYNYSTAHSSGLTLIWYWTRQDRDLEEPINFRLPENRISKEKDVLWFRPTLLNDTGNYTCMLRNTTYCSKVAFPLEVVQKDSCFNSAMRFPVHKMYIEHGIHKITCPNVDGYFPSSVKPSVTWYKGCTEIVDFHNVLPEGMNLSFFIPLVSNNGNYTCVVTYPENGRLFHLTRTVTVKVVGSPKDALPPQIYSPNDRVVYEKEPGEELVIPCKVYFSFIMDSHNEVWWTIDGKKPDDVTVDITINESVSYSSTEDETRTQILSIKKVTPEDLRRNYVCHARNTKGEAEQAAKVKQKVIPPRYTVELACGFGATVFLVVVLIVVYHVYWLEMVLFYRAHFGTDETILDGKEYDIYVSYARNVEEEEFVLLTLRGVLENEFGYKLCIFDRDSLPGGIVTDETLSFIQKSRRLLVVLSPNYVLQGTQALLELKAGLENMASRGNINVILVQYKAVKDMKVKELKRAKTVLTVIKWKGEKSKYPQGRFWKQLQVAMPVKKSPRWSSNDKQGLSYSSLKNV
Put plainly: flow cytometry on NIH-3T3 cells, PE-Cyanine7 secondary antibody, relative mean fluorescence intensity (isotype subtracted); upper of two curves. The protocol: In brief, cells were harvested, counted, and plated at 50′000 cells/well in a 96-well round-bottom plate. The plate was centrifuged at 350 g for 3 minutes and the cells were resuspended in […] of FACS® buffer (PBS (1×)+2.5% FCS+2 mM EDTA+0.05% NaN₃) containing various concentrations (ranging from 20 to 0.0001 μg/ml) of either anti-mouse IL-1RAP_candidate_1 or Isotype control_2 antibodies. Stained cells were incubated for 30 minutes at 4° C., washed twice with FACS® buffer at 350 g for 3 min and resuspended in 100 μl of a monoclonal anti-mouse IgG PE-Cyanine7 secondary antibody (Biolegend, 407114) diluted 1/200 in FACS® buffer. Cells were then washed twice, and resuspended in 200 μl of FACS® buffer containing SYTOX® Green dead cell stain (THERMO FISHER […]®, S34860) and samples were acquired on a CYTOFLEX® instruments (Beckman Coulter). The cells were gated based on size on FSC vs SSC and analysed for PE-Cyanine7-geometric mean (geomean) fluorescence intensity using FLOWJO® software. Finally, relative geomean fluorescence intensity was calculated by subtracting fluorescence of anti-mouse IL-1RAP_candidate_1 per fluorescence of Isotype control_2. As depicted in FIG. 11, anti-mouse IL-1RAP_candidate_1 antibody recognizes membrane-bound IL-1RAP expressed on NIH-3T3 cell line. […] Each data point is a measurement for a given cell line. […]
On the technique in general: In flow cytometry, cells or beads pass a laser one at a time.

The target of experiment [3] is T1, Recombinant cynomolgus monkey …. Put plainly: SPR, IgG1 LALA captured by anti-human Fc, cyno IL-1RAP-avi-his as analyte, 1:1 fit. The protocol:
Surface plasmon resonance (SPR) was used to measure the binding affinities of the human IgG1 LALA molecules for human and cynomolgus monkey IL-1RAP. Affinities were measured on a BIACORE™ T200 instrument (BIACORE™, GE […]®) at 25° C. and analyzed with the BIACORE™ T200 Evaluation Software (v3.1). Measurements were performed on Series S CM5 sensor chips (BIACORE™ T200, BIACORE™, GE […]®, catalog no. BR100530) coupled with anti-human IgG Fc (BIACORE™, GE […]®, catalog no. BR100839) using a commercial amine coupling kit (BIACORE™, GE […]®, catalog no. BR100050). SPR measurements were performed with recombinant human IL-1RAP-avi-his protein produced in house (SEQ ID NO. 1) or recombinant cynomolgus monkey IL-1RAP-avi-his protein produced in house (SEQ ID NO. 2). The affinities to human and cynomolgus monkey IL-1RAP were assessed by immobilizing anti-IL-1RAP IgG1 LALA molecules and using IL-1RAP proteins as analyte. Around 150 RU of human IgG1 LALA were captured on fc2 of a Series S CM5 sensor chip coupled with anti-human IgG Fc. Recombinant human IL-1RAP-avi-his protein or recombinant cynomolgus monkey IL-1RAP-avi-his protein was injected in multi cycle kinetic at different concentrations ranging from 0.14 to 100 nM, in HBS-EP+ buffer (BIACORE™, GE […]®, catalog no. BR100669) at a flow rate of 30 μl/min for 3 min on fc1 and fc2 (fc1 being used as reference). Dissociation was monitored for 12 min. After each cycle, the surface was regenerated with 60 μl of regeneration solution provided with anti-human IgG Fc capture kit (BIACORE™, GE […]®, catalog no. BR100839). Experimental data were processed using the 1:1 Langmuir kinetic fitting model. Measurements included zero-concentration samples for referencing. Chi², U- and residual values were used to evaluate the quality of a fit between the experimental data and individual binding models.

B1: Anti-IL-1RAP-C3-A3 mmIgG2a LALA (antibody, V domains shown)
VH: EVQLLESGGGLVQPGGSLRLSCAASGFIFSHYGMSWVRQAPGKGLEWVSAISYDGEGTLYADSVKGRFTISRDNSKNTLYLQMNSLRAEDTAVYYCARFRYYTAFDYWGQGTLVTVSS
VL: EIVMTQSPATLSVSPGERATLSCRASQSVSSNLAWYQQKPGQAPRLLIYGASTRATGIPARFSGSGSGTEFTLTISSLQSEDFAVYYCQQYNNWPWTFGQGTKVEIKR
notes: also called anti-IL-1RAP-C3-A3 mouse IgG2a LALA
As for B1, the binding result in experiment [1] is “no binding”. Besides, the EC50 (read off the curve) (in general, the concentration at which the effect is half-maximal) in experiment [2] is roughly 0.01 µg/mL.

B2: Anti-IL-1RAP-C8-RecC-ES-IgG1LALA (antibody, V domains shown)
VH: QVQLVQSGAEVKKPGSSVKVSCKASGSPAEPYAIQWVRQAPGQGLEWMGYIIPSLGGYDYAQKFQGRVTITADESTSTAYMELSSLRSEDTAVYYCARGQTLYESGRQFDIWGQGTLVTVSS
VL: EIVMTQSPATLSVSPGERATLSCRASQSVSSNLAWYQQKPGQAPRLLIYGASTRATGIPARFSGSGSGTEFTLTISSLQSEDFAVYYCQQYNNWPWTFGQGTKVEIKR
notes: also called ISB 880-C8-recC-ES
On to B2, for which, in experiment [3], the Kd (in general, the free concentration of one partner at which half of the binding sites on the other are occupied at equilibrium, for simple one-to-one binding) came out at 0.306 nM; the koff (usually the first-order rate constant of dissociation) stood at 0.000212 s⁻¹; the on-rate constant (kon) (commonly the rate constant with which the complex forms) turned out to be 692000 M⁻¹ s⁻¹.
